This is an account of results in patent US10323078B2, “Isolated peptides and fragments thereof from fibrinogen for use as drugs, particularly in skin inflammatory diseases” (Universite Paris Descartes, priority 2015, dated 2019).

Common to all, as to assay type: cell-based, human
One assay has as its system MRC5 cells. Description: O2°− production by P. acnes-stimulated MRC5. The following applies: bacteria first pretreated, 0.87 to 7 μM. On the procedure:
(§1) For experiences of stimulation with P. acnes, cells were incubated with the P. acnes suspension adjusted at the appropriate concentration, pre-treated for 1 h at 37° C. or not with fibrinogen recombinant peptides Fg1 and Fg2 at the concentrations 0.87, 1.75, 3.5 or 7 μM for the desired period of time at 37° C. in 5% CO2.
(§2) All cells lines (5·10^4 to 10^5 cells/well) were seeded in 96-well plates (Corning Costar, Brumath, France) and treated as previously described. After stimulation, cells were washed three times in PBS and incubated with 100 μl per wells of 5 μM DHE (for determination of O2^●−) or 5 μM H2-DCFDA (for determination of H2O2) for 30 min as described previously and fluorescence intensity was recorded every hour over a period of 5 h. Fluorescence excitation/emission maxima were for DHE: 480/610 nm and for H2-DCFDA: 507/525 nm. At the end of the experiment, the number of adherent cells was evaluated by the crystal violet assay as described below. O2^●−, and H2O2 were assayed by spectrofluorimetry on a Fusion spectrofluorimeter (PackardBell, Paris, France). Levels of ROS were calculated in each sample as follows: reactive oxygen species rate (arbitrary units/min/10^6 cells)=(fluorescence intensity [arbitrary units] at T5h—fluorescence intensity [arbitrary units] at To/300 minutes/number of adherent cells as measured by the crystal violet assay, and were expressed as arbitrary unit (A.U.).
To assess the efficacy of Fg1 recombinant peptide, the production of O2^∘− and H2O2 by HaCaT cells NHDK, THP-1, MRC5 and HDF stimulated by pretreated P. acnes strains 6919, RON and PIE was measured. The amount of ROS produced was compared to that produced by the stimulated cells with untreated bacteria. Production baseline was obtained by measuring ROS on unstimulated cells. The production of IL-1ß, IL-8, IL-12 and TNF-α was also measured in all conditions cited above. The measurement of the production of ROS is performed by spectrofluorimetry in the presence of specific fluorochromes directly on the monolayer cell. […]

Assay [1] has as its system NHDK cells. The assay is described as follows: IL-12 production by P. acnes-stimulated NHDK (ELISA). The following applies: P. acnes RON, set I, bacteria first pretreated, 0.87 to 7 μM. The protocol: as §1
(§3) Human IL-1ß, IL-8, IL-12, hBD-2, and TNF-α protein concentration was measured in the supernatants of stimulated cells using various ELISA Set kits (Ready-Set-Go kit from eBioscience for acne experiments, and for psoriasis experiments the Duo set IL-8 kit from R&D Systems and the BD-2 Human Development (hBD-2) from Peprotech) according to the manufacturer's instructions. We used serial dilutions of recombinant human IL-1ß, IL-8, IL-12 and TNF-α for standard curve. The optical density was determined at 450 nm at a wavelength correction of 540 nm.
(§4) To assess the efficacy of Fg1 recombinant peptide, the production of O2^∘− and H2O2 by HaCaT cells NHDK, THP-1, MRC5 and HDF stimulated by pretreated P. acnes strains 6919, RON and PIE was measured. The amount of ROS produced was compared to that produced by the stimulated cells with untreated bacteria. Production baseline was obtained by measuring ROS on unstimulated cells. The production of IL-1ß, IL-8, IL-12 and TNF-α was also measured in all conditions cited above. […]

In assay [2] the test system is ThP1 cells. Description: IL-12 production by P. acnes-stimulated ThP1 (ELISA). The following applies: P. acnes 6919, set I, bacteria first pretreated, 0.87 to 7 μM. The protocol: as §1, §3, §4
(In general: An ELISA detects its analyte on a solid surface through an enzyme-linked reagent.)

The test system of another assay is HaCaT cells. The assay is described as follows: O2°− production by P. acnes-stimulated HaCaT (spectrofluorimetry, DHE). Conditions: bacteria first pretreated, 0.87 to 7 μM. The protocol: FIG. 14: Dose-dependent inhibition of O2^∘− production by keratinocytes stimulated by P. acnes pre-treated by recombinant peptide. HaCaT cell were incubated for 18 h with P. acnes PIE strain at a concentration adjusted to 0.2 of absorbance at 600 nm (blue bar) and with P. acnes pretreated with recombinant peptide Fg1 (light gray bar) and Fg2 (dark gray bar). Measurement of superoxide anion production was realized by spectrofluorometry as described in Materials and Methods. Control experiment was done on unstimulated HaCaT cell (red bar). Data are means±S.D. of three separate experiments. Statistical significance is indicated by * (P<0.05), ** (P<0.01), *** (P<0.001), and **** (P<0.0001), respectively.
as §1
as §2, with “O2^●−, and H2O2 were assayed by spectrofluorimetry on a Fusion spectrofluorimeter (PackardBell, Paris, France).” left out, “(A.U.). […]” for “(A.U.).”

For assay [3], the system named is keratinocytes and fibroblasts. Description: IL-8 production by cells stimulated with P. acnes, overall statement. The following applies: the 3 bacterial tested strains. The protocol:
as §1, §3, §4

Assay [4] deals with NHDK cells. Description: IL-8 production by P. acnes-stimulated NHDK (ELISA). Conditions: 0.87 to 7 μM. The protocol:
as §1, §3
(§5) To assess the efficacy of Fg1 recombinant peptide, the production of O2^∘− and H2O2 by HaCaT cells NHDK, THP-1, MRC5 and HDF stimulated by pretreated P. acnes strains 6919, RON and PIE was measured. The amount of ROS produced was compared to that produced by the stimulated cells with untreated bacteria. Production baseline was obtained by measuring ROS on unstimulated cells. The production of IL-1ß, IL-8, IL-12 and TNF-α was also measured in all conditions cited above. The measurement of the production of ROS is performed by spectrofluorimetry in the presence of specific fluorochromes directly on the monolayer cell. Measurement of cytokine production was performed in parallel on the cell culture supernatant.
(§6) Two sets of experiments were implemented: 1) The cells were stimulated (18 h at 37° C.) by P. acnes strains previously pretreated with Fg1 and Fg2 peptides at the final concentrations ranging from 0.87 to 7 μM for 1 h at 37° C.; and 2) The cells were pretreated first with Fg1 and Fg2 peptides at the final concentrations ranging from 0.87 to 7 μM for 24 h at 37° C. and stimulated (18 h at 37° C.) by P. acnes strains.

Assay [5] has as its system ThP1 cells. Description: O2°− production by P. acnes-stimulated ThP1. The following applies: 0.87 to 7 μM. The protocol:
as §1, §2, §5, §6

[6] abbreviates: P. acnes 6919, set I, bacteria first pretreated.
[7] abbreviates: P. acnes 6919, set II, cells first pretreated.
Where [8] appears, read: P. acnes PIE, set I, bacteria first pretreated.
The mark [9] stands for this setting: P. acnes PIE, set II, cells first pretreated.
The mark [10] stands for this setting: P. acnes RON, set I, bacteria first pretreated.
Where [11] appears, read: P. acnes RON, set II, cells first pretreated.

B1: MKRMVSWSFHKLKTMKHLLLLLLCVFLVKSQGVNDNEEGFFSARGHRPLDKKREEAPSLRPAPPPISGGGYRARPAKAAATQKKVERKAPDAGGCLHADPDLGVLC (protein)
chain: MKRMVSWSFHKLKTMKHLLLLLLCVFLVKSQGVNDNEEGFFSARGHRPLDKKREEAPSLRPAPPPISGGGRARPAKAAATQKKVERKAPDAGGCLHADPDLGVLCMKRMVSWSFHKLKTMKHLLLLLLCVFLVKSQGVNDNEEGFFSARGHRPLDKKREEAPSLRPAPPPISGGGYRARPAKAAATQKKVERKAPDAGGCLHADPDLGVLC
modifications: GST fusion; fragment Fg1
notes: fragment of Bß chain of human fibrinogen having 106 amino acids; recombinant GST-fused peptide expressed in E. coli
For B1, the “Inhibition of Superoxide anion (O2°−) production” value was “pos” in the assay on MRC5 cells (P. acnes 6919, set I); “pos” in the assay with MRC5 cells (P. acnes PIE, set I); “pos” with MRC5 cells (P. acnes RON, set I); “pos” in the assay on HaCaT cells (P. acnes 6919, set I); “pos” in the assay on HaCaT cells (P. acnes PIE, set I); “pos” in the assay on HaCaT cells (P. acnes RON, set I). The “Inhibition of Superoxide anion (O2°−) production” value with ThP1 cells [5] (setting [6]), in the assay with ThP1 cells [5] (setting [7]), with ThP1 cells [5] (setting [8]), in the assay with ThP1 cells [5] (setting [9]), in the assay on ThP1 cells [5] (setting [10]) and in the assay with ThP1 cells [5] (setting [11]) was “pos” each time. For the same molecule, the “Inhibition of Interleukine 12 (IL-12) production” value with NHDK cells [1] and with ThP1 cells [2] was “pos” in each case. For the same molecule, the “Decrease of the production of IL-8” value in assay [3] is on record as “dose-response effect on the decrease of the production of IL-8”. For the same molecule, the “Inhibition of Interleukine 8 (IL-8) production” value in the assay with NHDK cells [4] (setting [6]), with NHDK cells [4] (setting [7]), with NHDK cells [4] (setting [8]), in the assay with NHDK cells [4] (setting [9]), in the assay on NHDK cells [4] (setting [10]) and in the assay on NHDK cells [4] (setting [11]) was “pos” throughout.
